# Test results: PMC6123711, “Conformational signatures in β-arrestin2 reveal natural biased agonism at a G-protein-coupled receptor” (Communications Biology, 2018)
# Marks after values point to notes of the source that are not given here.
# B1: Spexin (peptide, UniProt Q9BT56 27-116, looked up)
# Spexin: APQRLLERRNWTPQAMLYLKGAQGRRFISDQSRRKDLSDRPLPERRSPNPQLLTIPEAATILLASLQKSPEDEEKNFDQTRFLEDSLLNW
# modifications: Spexin
# notes: endogenous peptide ligand of Galr2 and Galr3; synthesized by AnyGen
# Assays:
# Assay type in all cases: cell-based, human
# Galr2 [1] = test: Gαq-dependent Erk1/2 phosphorylation (β-arrestin1/2-knockout HEK293 cells); details: for ΔLog(τ/KA), Gαq-dependent-pErk1/2: normalized to Galanin (reference agonist), in parenthesis, mean ± s.e.m. of three experiments in triplicate; for Log(τ/KA), Gαq-dependent-pErk1/2: western blot, 5 min stimulation, operational model (Eq. 2), mean ± s.e.m. of three experiments in triplicate (table footnote)
# Excerpt: (§1) Galr2 is primarily coupled to the Gαq-protein which activates the phospholipase C/protein kinase C pathway for inositol phosphate production. We measured G-protein activation in HEK293 cells transiently expressing Galr2, using the serum response element-luciferase (SRE-Luc) gene reporter assay[10],[37] and for a more specific monitoring of Gαq-protein activity we also measured total inositol phosphate production. […] However, some differences were observed between SRE-Luc activity and total inositol phosphate production in the rank order of potency of the tested ligands. […] Phosphorylation of extracellular signal-regulated protein kinases 1 and 2 (pErk1/2) is either G-protein or β-arrestin dependent. To distinguish Gαq-protein- and β-arrestin1/2-dependent Erk1/2 signaling, we examined ligand-stimulated Erk1/2 phosphorylation in three different HEK293 cell lines, wild type, Gαq/11-knockout, and β-arrestin1/2-knockout cells. All three ligands induced high levels of Erk1/2 phosphorylation dose-dependently in wild-type HEK293 cells.
# (§2) Fig. 5 Galr2 agonists display different Gαq-protein-dependent signaling and pErk1/2. The ability of increasing concentrations of agonists to induce a SRE-Luc activity and b total inositol phosphate production. c Representative western blot showing ligand-induced phosphorylation of Erk1/2 from wild-type (HEK293 WT), Gαq/11-, and β-arrestin1/2-knockout HEK293 cells expressing Galr2 (original blots are presented in Supplementary Figure 4). pErk1/2 and total Erk levels were determined at 5 min after stimulation of different concentrations of three ligands. Western blot band intensities corresponding to each concentration were quantified using Image studio ^TM Software. […] Data are the mean ± s.e.m. values of two independent experiments
# (§3) pErk1/2 was measured using western blot assay. HEK293 Gαq/11 and β-arrestin1/2-knockout cells were a kind gift from Professor Asuka Inoue, Tohoku University. The cells were seeded into 6-well plates at a density of 6 × 10^5 cells per well. The next day, they were transfected using 2 μg/well of plasmid containing human Galr2 cDNA and Lipofectamine 2000, according to the manufacturer’s instructions. Before assay, the cells were washed with phosphate-buffered saline and incubated in serum-free DMEM overnight. Dose–response experiments were performed for each ligand at 37 °C. Stimulation of the cells was terminated after 5 min of agonist stimulation by removing the medium, and the addition of 250 μl cold lysis buffer to each well. Immunoblots of phospho-Erk1/2 were obtained using 8 μg of total protein and p44/42 MAPK Erk1/2 antibody (Cell Signaling Technology Inc, catalog no. 4370 S); horseradish peroxidase-conjugated goat anti-rabbit IgG was used as a secondary antibody (Thermo Fisher Scientific). The proteins were visualized using enhanced chemiluminescence (GE Health Care). Image Studio ^TM Software was used for the pErk1/2 band density analysis.
# Galr2 [2] = test: Quantification of biased agonism between two pathways (operational model); details: for ΔΔLog(τ/KA) (bias factor), Gαq-dependent-pErk1/2/β-arrestin1: Gαq-dependent-pErk1/2 vs β-arrestin1; for ΔΔLog(τ/KA) (bias factor), SRE-Luc/clathrin:β-arrestin2: SRE-Luc vs clathrin:β-arrestin2; for ΔΔLog(τ/KA) (bias factor), SRE-Luc/β-arrestin1: SRE-Luc vs β-arrestin1; for ΔΔLog(τ/KA) (bias factor), SRE-Luc/β-arrestin2: SRE-Luc vs β-arrestin2; for ΔΔLog(τ/KA) (bias factor), Total inositol phosphate/clathrin:β-arrestin2: total inositol phosphate vs clathrin:β-arrestin2; for ΔΔLog(τ/KA) (bias factor), Total inositol phosphate/β-arrestin1: total inositol phosphate vs β-arrestin1; for ΔΔLog(τ/KA) (bias factor), Total inositol phosphate/β-arrestin2: total inositol phosphate vs β-arrestin2; for ΔΔLog(τ/KA) (bias factor), β-Arrestin-dependent-pErk1/2/β-arrestin2: β-arrestin-dependent-pErk1/2 vs β-arrestin2
# Protocol: To determine whether differential signaling at Galr2 (Figs. 2 and 5) may be translated into biased agonism, we used the operational model of agonism (Eq. 2) to calculate the logarithm of the transduction coefficient (log(τ/KA)) for each agonist at each pathway (Table 1)[4]. We used Galanin as a reference ligand during all experiments. […] We also calculated bias factors for G-protein-dependent pErk1/2 and β-arrestins.
# (§4) Quantification of bias between each pathway was performed using Galanin as a reference ligand. All incubations for the different signaling assays were performed in serum-free medium to prevent peptide degradation.
# To calculate biased factors and compare agonist profiles, the dose–response data were fit to the following form of the operational model of agonism:[42]2 Y=Basal+Em-basalτ/KA^n[A]^n/[A]^nτ/KA^n+1+[A]/KA^n where Em is the maximal possible response of the system, Basal is the basal level of response, KA represents the equilibrium dissociation constant of the agonist (A), and τ is an index of the signaling efficacy of the agonist that is defined as RT/KE. RT is the total number of receptors, KE is the coupling efficiency of each agonist-occupied receptor, and n is the slope of the transducer function that links occupancy to response. One assumption of the analysis is that the transduction machinery used for a given cellular pathway are the same for all agonists, such that the Em and transducer slope (n) are shared between agonists. The data for all compounds for each pathway were fit globally, to determine values of KA and τ. Biased agonism was quantified as previously described. […] The relative bias can then be calculated for each agonist at the two different signaling pathways by subtracting the Δlog(τ/KA) of one pathway from the other to give a ΔΔlog(τ/KA) value, which is a measure of bias. […] All transduction ratios (log(τ/KA)) parameters were estimated as logarithms. All results were expressed as mean ± s.e.m. values. We performed a Brown–Forsythe test (Graph Pad Prism 7.0) to assure ourselves of equal variances between the compared parameters.
# Galr2 [3] = test: SRE-Luc gene reporter assay; details: for Log(τ/KA), SRE-Luc: HEK293 cells, Galr2, 6 h ligand treatment, operational model (Eq. 2)
# Excerpt: as §1, §2, §4
# One day before transfection, cells were seeded in 48-well plates at a density of 2.5 × 10^4 cells per well. A mixture containing 75 ng SRE-Luc reporter construct, 75 ng expression plasmid, and 0.3 μl Lipofectamine 2000 (Invitrogen) was prepared and added to each well, according to the manufacturer’s instructions. The cells were then maintained in serum-free DMEM for 16–18 h before exposure to the ligands. Approximately 48 h after transfection, the cells were treated with the respective ligands for 6 h. The cells were then lysed using 100 μl lysis buffer. The luciferase activity in 50 μl cell extract was determined using a luciferase assay system, following the standard protocol for the Synergy 2 Multi-Mode Microplate Reader Biotek.
# Galr2 [4] = test: β-Arrestin1/2-dependent Erk1/2 phosphorylation (Gαq/11-knockout HEK293 cells); details: for ΔLog(τ/KA), β-Arrestin1/2 dependent-pErk1/2: normalized to Galanin (reference agonist), in parenthesis, mean ± s.e.m. of three experiments in triplicate; for Log(τ/KA), β-Arrestin1/2 dependent-pErk1/2: western blot, 5 min stimulation, operational model (Eq. 2), mean ± s.e.m. of three experiments in triplicate (table footnote)
# Excerpt: as §1, §2
# as §3, with “The proteins were visualized using enhanced chemiluminescence (GE Health Care). Image Studio ^TM Software was used for the pErk1/2 band density analysis.” left out
# [5] = reference agonist Galanin, mean ± s.e.m. of three experiments in triplicate
# [6] = mean ± s.e.m. of three experiments in triplicate
Molecule,"ΔLog(τ/KA), Gαq-dependent-pErk1/2 (Galr2 [1])","Log(τ/KA), Gαq-dependent-pErk1/2 (Galr2 [1])","ΔΔLog(τ/KA) (bias factor), Gαq-dependent-pErk1/2/β-arrestin1 (Galr2 [2]; [5])","ΔΔLog(τ/KA) (bias factor), SRE-Luc/clathrin:β-arrestin2 (Galr2 [2]; [5])","ΔΔLog(τ/KA) (bias factor), SRE-Luc/β-arrestin1 (Galr2 [2]; [5])","ΔΔLog(τ/KA) (bias factor), SRE-Luc/β-arrestin2 (Galr2 [2]; [5])","ΔΔLog(τ/KA) (bias factor), Total inositol phosphate/clathrin:β-arrestin2 (Galr2 [2]; [5])","ΔΔLog(τ/KA) (bias factor), Total inositol phosphate/β-arrestin1 (Galr2 [2]; [5])","ΔΔLog(τ/KA) (bias factor), Total inositol phosphate/β-arrestin2 (Galr2 [2]; [5])","ΔΔLog(τ/KA) (bias factor), β-Arrestin-dependent-pErk1/2/β-arrestin2 (Galr2 [2]; [5])","Log(τ/KA), SRE-Luc (Galr2 [3]; [6])","ΔLog(τ/KA), β-Arrestin1/2 dependent-pErk1/2 (Galr2 [4])","Log(τ/KA), β-Arrestin1/2 dependent-pErk1/2 (Galr2 [4])",further results
Galanin [reference compound],0.00 ± .22,6.90 ± 0.22,0.00 ± 0.22,0.00 ± 0.17,0.00 ± 0.002,0.00 ± 0.02,0.00 ± 0.19,0.00 ± 0.03,0.00 ± 0.05,0.00 ± 0.38,4.80±0.007,0.00 ± 0.40,6.42 ± 0.41,"overall signaling at Galr2 (Galr2 [2]; G-protein and β-arrestin1/2): robust signaling toward G-protein and β-arrestin1/2; ΔΔLog(τ/KA) (bias factor), Gαq-dependent-pErk1/2/β-arrestin2 (Galr2 [2]; Gαq-dependent-pErk1/2 vs β-arrestin2, reference agonist Galanin, mean ± s.e.m. of three experiments in triplicate): 0.00 ± 0.04; ΔLog(τ/KA), SRE-Luc (Galr2 [3]; normalized to Galanin (reference agonist), in parenthesis, mean ± s.e.m. of three experiments in triplicate): 0.00 ± 0.007"
B1,0.57 ± 0.22,7.47 ± 0.21,1.10 ± 0.29^b,1.88 ± 0.07^b,0.63 ± 0.06^b,0.77 ± 0.02^b,1.84 ± 0.12^b,0.60 ± 0.09^b,0.73 ± 0.09^b,1.40 ± 0.16^a,4.95±0.04,0.73 ± 0.13,7.15 ± 0.14,"pathway responsible for agonist-induced Erk1/2 phosphorylation (Galr2 [1]; from comparison of wild-type, Gαq/11- and β-arrestin1/2-knockout HEK293 cells): likely mainly attributable to the G-protein-dependent signaling pathway; biased agonism, pErk1/2 vs β-arrestin isoforms (Galr2 [2]; Gαq-dependent pErk1/2 vs the two β-arrestin isoforms, relative to Galanin): biased signaling toward Gαq-dependent pErk1/2 over the two β-arrestin isoforms; biased agonism, β-arrestin-dependent pErk1/2 vs β-arrestin2 recruitment (Galr2 [2]; relative to Galanin): biased agonism was also detected toward β-arrestin-dependent pErk1/2 over β-arrestin2 recruitment; biased agonism (Galr2 [2]; relative to Galanin, Gαq-protein-dependent signaling vs β-arrestins and β-arrestin2–clathrin): biased agonism toward Gαq-protein-dependent signaling over β-arrestins and β-arrestin2–clathrin interactions; efficacy in SRE-Luc assay (Galr2 [3]; HEK293 cells transiently expressing Galr2): substantially higher efficacy"
